In this experiment the target is T1, recombinant hTACSTD2-Fc-His protein (Creative BioMart) (human, UniProt P09758 27-274, limits assumed).
T1 construct: bought protein; also called hTROP-2 (low-density antigen-coated ELISA); not shown: Fc part of the bought fusion protein; not described; His tag
T1 sequence: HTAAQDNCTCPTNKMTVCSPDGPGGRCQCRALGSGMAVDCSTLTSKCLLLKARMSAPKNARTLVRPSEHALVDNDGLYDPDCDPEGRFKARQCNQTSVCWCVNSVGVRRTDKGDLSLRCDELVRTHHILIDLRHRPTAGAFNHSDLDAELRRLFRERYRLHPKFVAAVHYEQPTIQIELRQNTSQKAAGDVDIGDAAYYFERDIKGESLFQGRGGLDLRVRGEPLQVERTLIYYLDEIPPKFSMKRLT
Description: low-density antigen-coated ELISA, plate coated with 0.1 µg/mL hTACSTD2-Fc-His, purified antibodies; HuK5-70-2 (R44G mutant); low-density ELISA, 0.1 µg/mL hTROP-2 coat. A general note: In an ELISA, binding on a coated surface is turned into a signal by an enzyme label.

This note sets out measurements from patent US20160333110A1 (CHIOME BIOSCIENCE, published 2016).

B1: HuK5-70-2 antibody (HuK5-70 R44G mutant antibody) (antibody, V domains shown)
VH: QVQLVQSGAEVKKPGASVKVSCKASGYTFTIYWINWVRQAPGQGLEWIGNIYPSDSYTNYNQKFKDKATLTVDTSASTAYMELSSLRSEDTAVYYCTRTSMADYWGQGTLVTVSS
VL: EIVLTQSPATLSLSPGERATLSCRASQSIGTSIHWYQQKPGQAPRLLIKYASESISGIPARFSGSGSGTDFTLTISSLEPEDFAVYYCQQSNSWPFTFGQGTKVEIK
notes: also called HuK5-70 VH R44G; HuK5-70 VH2
Broadly, the EC50 is the midpoint of the concentration-response curve. With B1, the EC50 was found to be 0.0114 µg/mL.
